Laboratory results from paper PMC6477676, “Staufen2-mediated RNA recognition and localization requires combinatorial action of multiple domains”.
Positions count from the first letter of the chain named.

T1: mStau2 dsRBD1-2 F40A F157A (Mus musculus, UniProt Q8CJ67 8-181, F40A;F157A)
T1 sequence: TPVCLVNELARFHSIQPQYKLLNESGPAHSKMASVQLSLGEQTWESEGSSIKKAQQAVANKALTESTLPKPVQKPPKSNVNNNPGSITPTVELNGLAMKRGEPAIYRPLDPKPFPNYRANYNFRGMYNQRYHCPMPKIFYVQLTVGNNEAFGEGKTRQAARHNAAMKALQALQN

T2: mStau2 dsRBD1-2 F40A H169A (Mus musculus, UniProt Q8CJ67 8-181, F40A;H169A)
T2 sequence: T1 sequence with A150F, H162A

T3: mStau2 dsRBD1-2 F157A (Mus musculus, UniProt Q8CJ67 8-181, F157A)
T3 sequence: T1 sequence with A33F

T4: mStau2 dsRBD1-4 (Mus musculus, UniProt Q8CJ67 8-375)
T4 sequence: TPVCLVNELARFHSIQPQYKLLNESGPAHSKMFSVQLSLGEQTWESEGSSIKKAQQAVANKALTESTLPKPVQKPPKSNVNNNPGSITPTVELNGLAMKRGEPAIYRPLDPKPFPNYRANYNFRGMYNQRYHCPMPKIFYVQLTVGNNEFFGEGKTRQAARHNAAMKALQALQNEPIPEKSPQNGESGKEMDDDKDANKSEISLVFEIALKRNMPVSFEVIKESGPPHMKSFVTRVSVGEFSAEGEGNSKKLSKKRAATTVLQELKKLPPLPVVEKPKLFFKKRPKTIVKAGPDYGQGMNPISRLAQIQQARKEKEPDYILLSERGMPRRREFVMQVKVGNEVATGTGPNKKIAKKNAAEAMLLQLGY

T5: mStau2 dsRBD1-4 F40A H169A (Mus musculus, UniProt Q8CJ67 8-375, F40A;H169A)
T5 sequence: T4 sequence with F33A, H162A

B1: SRS* (SRS3) (structured_RNA)
RNA: GGUAUGUGUGAAUGUGCAUGAAUAUAUAUAUAUAUGCAUAUAUAUAUUUGUAUAUGUUCACACAUG

Experiments:
[1] = biological target: T1, mStau2 dsRBD1-2 F40A F157A; experiment: SPR; no fit; SPR: HBS-EP (10 mM HEPES pH 7.4, 150 mM NaCl, 3 mM EDTA, 0.005% P20); EMSA: 5 nM RNA, protein buffer (40 mM Bis-Tris pH 7, 150 mM NaCl, 2 mM DTT presumed), 4% glycerol, 30 ug/mL yeast tRNA, RT; NMR: 150 mM NaCl, 20 mM Na phosphate pH 7.0, 5 mM DTT, 298 K; conditions: protein: recombinant, label: 5' 32P (EMSA), biotin (SPR)
[2] = biological target: T2, mStau2 dsRBD1-2 F40A H169A; experiment: as above; conditions: protein: recombinant, label: 5' 32P (EMSA), biotin (SPR)
mStau2 dsRBD1-2 F157A = biological target: T3, mStau2 dsRBD1-2 F157A; experiment: SPR; Hill n 1.5; stable kinetics; SPR: HBS-EP (10 mM HEPES pH 7.4, 150 mM NaCl, 3 mM EDTA, 0.005% P20); EMSA: 5 nM RNA, protein buffer (40 mM Bis-Tris pH 7, 150 mM NaCl, 2 mM DTT presumed), 4% glycerol, 30 ug/mL yeast tRNA, RT; NMR: 150 mM NaCl, 20 mM Na phosphate pH 7.0, 5 mM DTT, 298 K; conditions: protein: recombinant; label: 5' 32P (EMSA); biotin (SPR); hairpin, 18 bp stem
mStau2 dsRBD1-4 = biological target: T4, mStau2 dsRBD1-4; experiment: SPR; Hill n 1.6; text says 357 nM; SPR: HBS-EP (10 mM HEPES pH 7.4, 150 mM NaCl, 3 mM EDTA, 0.005% P20); EMSA: 5 nM RNA, protein buffer (40 mM Bis-Tris pH 7, 150 mM NaCl, 2 mM DTT presumed), 4% glycerol, 30 ug/mL yeast tRNA, RT; NMR: 150 mM NaCl, 20 mM Na phosphate pH 7.0, 5 mM DTT, 298 K; conditions: protein: recombinant; tags: HisSUMO removed; label: 5' 32P (EMSA); biotin (SPR); hairpin, 18 bp stem
[3] = biological target: T5, mStau2 dsRBD1-4 F40A H169A; experiment: SPR; two-site, transient; KDs resemble dsRBD3-4; SPR: HBS-EP (10 mM HEPES pH 7.4, 150 mM NaCl, 3 mM EDTA, 0.005% P20); EMSA: 5 nM RNA, protein buffer (40 mM Bis-Tris pH 7, 150 mM NaCl, 2 mM DTT presumed), 4% glycerol, 30 ug/mL yeast tRNA, RT; NMR: 150 mM NaCl, 20 mM Na phosphate pH 7.0, 5 mM DTT, 298 K; conditions: protein: recombinant, label: 5' 32P (EMSA), biotin (SPR)
[4] = imperfect hairpin, 26 bp with two bulges

| Binder | binding result ([1]; hairpin, 18 bp stem) | binding result ([2]; hairpin, 18 bp stem) | Kd (mStau2 dsRBD1-2 F157A) [nM] | Kd (mStau2 dsRBD1-4) [nM] | binding result ([3]; hairpin, 18 bp stem) | binding result [1, 4] | binding result [2, 4] | binding result [3, 4] |
| --- | --- | --- | --- | --- | --- | --- | --- | --- |
| GGUAUAUACAUGCACAUGCAAUUUGUGUAUGUGUAUGUAUAUA (structured_RNA) [SRS2+5] | no binding | no binding | 497 ± 238 | 330 ± 148 | binds | – | – | – |
| B1 | – | – | – | – | – | no binding | no binding | binds |
